Results taken from patent US20120005127A1.

Biological target: IL-1 receptor (human) (UniProt P14778)
Experiment: cell-based or functional assay

Sequence of UniProt P14778 (P14778 18-569): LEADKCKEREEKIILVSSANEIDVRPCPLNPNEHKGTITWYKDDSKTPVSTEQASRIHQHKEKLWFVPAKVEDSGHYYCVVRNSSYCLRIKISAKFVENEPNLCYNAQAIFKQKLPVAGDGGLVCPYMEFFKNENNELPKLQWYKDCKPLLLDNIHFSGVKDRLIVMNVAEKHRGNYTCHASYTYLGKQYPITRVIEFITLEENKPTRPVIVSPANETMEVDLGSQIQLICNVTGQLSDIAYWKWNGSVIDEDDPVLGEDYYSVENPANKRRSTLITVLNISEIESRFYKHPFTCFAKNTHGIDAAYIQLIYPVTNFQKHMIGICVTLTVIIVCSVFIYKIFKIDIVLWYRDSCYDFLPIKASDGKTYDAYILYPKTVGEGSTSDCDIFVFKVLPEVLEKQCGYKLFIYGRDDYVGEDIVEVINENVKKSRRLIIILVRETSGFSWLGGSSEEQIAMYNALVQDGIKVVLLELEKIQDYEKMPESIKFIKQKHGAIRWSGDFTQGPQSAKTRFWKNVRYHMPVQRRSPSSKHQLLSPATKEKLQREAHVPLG

IC50 (pM): inhibition of IL-1β induced production of IL-8 in human whole blood: 53.4 pM
Substance: Kineret® (anakinra) (from UniProt P18510 26-177) (ligand)
